The source of these data is publication PMC10241913 (Nature Communications, 2023).

Holding throughout (details): both partners purified
One experiment has as its target T1, UBXD1-wt (1-441) (human, UniProt Q9BZV1 1-441).
T1 construct: also called UBXD1-fl; UBXN6; not shown: GST, N-terminal, cleaved
T1 sequence (looked up): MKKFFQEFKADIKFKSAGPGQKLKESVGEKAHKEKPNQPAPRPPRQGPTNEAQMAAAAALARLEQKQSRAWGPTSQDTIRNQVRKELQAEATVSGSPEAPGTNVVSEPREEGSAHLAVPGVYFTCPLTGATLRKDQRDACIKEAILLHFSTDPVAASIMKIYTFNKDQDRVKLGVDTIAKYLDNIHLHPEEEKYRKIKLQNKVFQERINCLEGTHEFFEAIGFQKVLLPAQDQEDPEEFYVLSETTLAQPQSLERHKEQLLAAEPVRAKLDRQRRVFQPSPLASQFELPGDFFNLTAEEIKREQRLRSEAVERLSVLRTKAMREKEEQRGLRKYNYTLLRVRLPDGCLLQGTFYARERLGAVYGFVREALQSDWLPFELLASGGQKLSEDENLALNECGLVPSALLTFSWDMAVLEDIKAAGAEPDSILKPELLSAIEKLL
The experiment can be described thus: fluorescence polarisation; displacement titration: UBXD1 incubated with 0.1 µM 5,6-FAM-p97-C10 peptide to 50% saturation, concentration of p97 successively increased; competitive binding model; 50 mM NaKPi buffer, pH 7.5, 25 °C. Background: Polarisation of emitted light reports the rotation of a fluorescent probe.

Another experiment addresses T2, UBXD1-PUB (150-264) (human, UniProt Q9BZV1 150-264).
T2 construct: UBXD1 (UBXN6), human, PUB domain, residues 150-264; also called His6-UBXD1-PUB; source: E. coli Rosetta2, purified (Ni-NTA, thrombin cleavage, SEC); unlabelled or 15N-labelled; not shown: His6, N-terminal, cleaved
T2 sequence (looked up): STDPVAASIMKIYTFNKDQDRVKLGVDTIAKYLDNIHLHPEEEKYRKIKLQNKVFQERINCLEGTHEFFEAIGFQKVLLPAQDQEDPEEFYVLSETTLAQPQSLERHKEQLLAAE
The experiment is described as follows: NMR titration; 1H-15N-HSQC of 15N-HR23b-UBL (200 µM), UBXD1-PUB added stepwise to 400 µM; 50 mM sodium potassium phosphate, pH 7.5, 25 °C.

Experiment [1] deals with T3, UBXD1 (1–441), recombinant, purified (human, UniProt Q9BZV1 1-441).
T3 construct: also called UBXD1-wt; UBXD1-fl; not shown: GST, N-terminal, cleaved
T3 sequence (looked up): T1 sequence (looked up)
The experiment is described as follows: fluorescence polarisation; direct anisotropy titration of 5,6-FAM-p97-C10 peptide (0.1 µM in the displacement set-up) with UBXD1.

The next experiment concerns the target T4, p97-N (1–199) (UniProt P55072 1-199).
T4 construct: p97/VCP, N-domain, residues 1-199; also called N-domain of p97; source: E. coli BL21 DE3 (T1r) (pET28a), purified
The experiment can be described thus: fluorescence polarisation; fluorescence anisotropy; Atto594-labeled UBXD1 proteins, p97 constructs titrated; 50 mM NaKPi pH 7.5, 25 °C; all fitted with stoichiometry n = 1.

A further experiment deals with T5, p97 wild type (1-806) (UniProt P55072 1-806).
T5 construct: p97/VCP, residues 1-806; also called p97-wt; p97-fl; source: E. coli BL21 DE3 (T1r), purified (Ni-NTA, anion exchange)
The experiment can be described thus: fluorescence polarisation; fluorescence anisotropy titration of Atto594-labelled UBXD1 construct with p97 construct; 50 mM NaKPi buffer, pH 7.5, 25 °C; fitted with the stoichiometry 1:1.

Experiment [2] has as its target T6, ubiquitin-GST fusion protein (Ub-GST) (UniProt P0CG48 1-76).
T6 construct: source: E. coli BL21 DE3 (T1r), purified
The experiment can be described thus: pull-down; 50 μM ubiquitin-GST, 2.5 μM p97 (hexamer) and 5 μM UBXD1 variant with GSH beads, 30 min, 4 °C, 50 mM Tris pH 7.4, 150 mM KCl, 1% Triton-X-100.

For another experiment, the target named is T7, UBXD1-PUB (150–264) (human, UniProt Q9BZV1 150-264).
T7 construct: UBXD1 (UBXN6), human, PUB domain, residues 150-264; 15N-labelled for some NMR titrations; also called isolated PUB domain; His-UBXD1-PUB; source: E. coli Rosetta2, purified (Ni-NTA, thrombin cleavage, SEC); not shown: His6, N-terminal, cleaved
T7 sequence (looked up): T2 sequence (looked up)
The experiment can be described thus: NMR titration; 1H-15N-HSQC: 15N-UBXD1-PUB (400 µM) with HR23b-UBL (0 to 1300 µM), and the reverse titration of 15N-HR23b-UBL with UBXD1-PUB; 25 °C.

Numbering of substitutions follows the chain as printed. Numbers in names are those of the source. No end group written: not given here.

T4 sequence (P55072 1-199): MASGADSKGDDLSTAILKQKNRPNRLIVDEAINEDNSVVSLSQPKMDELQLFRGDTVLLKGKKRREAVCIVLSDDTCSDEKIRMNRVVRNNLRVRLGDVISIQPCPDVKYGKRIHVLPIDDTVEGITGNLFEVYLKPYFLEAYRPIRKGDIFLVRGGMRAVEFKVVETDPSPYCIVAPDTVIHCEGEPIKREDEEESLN
T5 sequence (P55072 whole entry, the tested form may be a part): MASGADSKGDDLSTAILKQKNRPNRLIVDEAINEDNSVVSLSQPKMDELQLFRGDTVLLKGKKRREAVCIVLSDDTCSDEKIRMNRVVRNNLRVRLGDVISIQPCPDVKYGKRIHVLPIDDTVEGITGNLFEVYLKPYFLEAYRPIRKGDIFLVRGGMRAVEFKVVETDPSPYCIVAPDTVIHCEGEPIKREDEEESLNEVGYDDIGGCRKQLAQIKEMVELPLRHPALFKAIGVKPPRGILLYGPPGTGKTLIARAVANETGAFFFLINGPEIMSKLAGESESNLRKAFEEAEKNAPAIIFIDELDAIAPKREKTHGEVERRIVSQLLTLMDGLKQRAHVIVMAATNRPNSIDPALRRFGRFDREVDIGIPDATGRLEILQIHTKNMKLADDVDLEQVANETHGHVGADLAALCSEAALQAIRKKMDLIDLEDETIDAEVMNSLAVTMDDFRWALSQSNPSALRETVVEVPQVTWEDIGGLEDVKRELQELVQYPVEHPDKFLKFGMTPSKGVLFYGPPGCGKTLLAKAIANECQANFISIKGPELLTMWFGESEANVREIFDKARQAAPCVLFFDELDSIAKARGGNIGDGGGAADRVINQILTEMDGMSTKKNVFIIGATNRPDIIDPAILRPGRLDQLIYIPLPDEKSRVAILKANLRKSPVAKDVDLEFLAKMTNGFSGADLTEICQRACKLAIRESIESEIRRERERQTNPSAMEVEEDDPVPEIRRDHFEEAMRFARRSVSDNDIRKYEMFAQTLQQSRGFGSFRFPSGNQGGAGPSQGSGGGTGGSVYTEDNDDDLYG

As for {5,6‑FAM}-TEDNDDDLYG (p97/VCP C-terminal residues 797-806), the binding result with UBXD1-wt (1-441) is reported as “binds”.

B1: HR23b-UBL (1-78) (domain or fragment)
chain: not shown
notes: also called HR23b-UBL wt; 15N-HR23b-UBL; source: unlabelled or 15N-labelled; not shown: GST, N-terminal, cleaved
In the case of B1, in the experiment with UBXD1-PUB (150-264), the binding result was “binds”.
With {5,6‑FAM}-TEDNDDDLYG (p97/VCP, C-terminal residues 797-806), the binding result in experiment [1] is listed as “binds”.

B2: UBXD1-N (1–133) (domain or fragment, human, UniProt Q9BZV1 1-133, looked up)
chain: MKKFFQEFKADIKFKSAGPGQKLKESVGEKAHKEKPNQPAPRPPRQGPTNEAQMAAAAALARLEQKQSRAWGPTSQDTIRNQVRKELQAEATVSGSPEAPGTNVVSEPREEGSAHLAVPGVYFTCPLTGATLR
modifications: Atto594 (NHS ester; the UBXD1 proteins were labeled for anisotropy)
notes: UBXD1 (UBXN6), human, N-terminus, residues 1-133; The construct is not described on its own in the methods; limits from the results; also called UBXD1 N-terminus; not shown: GST, N-terminal, cleaved
As usually defined, the Kd is the free concentration of one partner at which half of the binding sites on the other are occupied at equilibrium, for simple one-to-one binding. High values mean weaker binding, low ones tighter binding. Molecule B2 gave a Kd with p97-N (1–199) of 22 ± 1 µM.

B3: UBXD1-ΔUBX-C (1-332), Atto594-labelled (domain or fragment, human, UniProt Q9BZV1 1-332, looked up)
chain: MKKFFQEFKADIKFKSAGPGQKLKESVGEKAHKEKPNQPAPRPPRQGPTNEAQMAAAAALARLEQKQSRAWGPTSQDTIRNQVRKELQAEATVSGSPEAPGTNVVSEPREEGSAHLAVPGVYFTCPLTGATLRKDQRDACIKEAILLHFSTDPVAASIMKIYTFNKDQDRVKLGVDTIAKYLDNIHLHPEEEKYRKIKLQNKVFQERINCLEGTHEFFEAIGFQKVLLPAQDQEDPEEFYVLSETTLAQPQSLERHKEQLLAAEPVRAKLDRQRRVFQPSPLASQFELPGDFFNLTAEEIKREQRLRSEAVERLSVLRTKAMREKEEQRGLR
modifications: Atto594 (NHS ester labelling)
notes: the methods say that the UBXD1 proteins were labelled with Atto594-NHS ester for anisotropy; not shown: GST, N-terminal, cleaved
For the molecule B3, the Kd in the experiment with p97 wild type (1-806) was found to be 5.5 ± 0.2 µM.

B4: UBXD1 E368A/D373A (full length, recombinant) (natural protein, human, UniProt Q9BZV1 1-441, looked up)
chain: T1 sequence (looked up) with E368A, D373A
notes: UBXD1 (UBXN6), human, mutant in the context of recombinant UBXD1-fl
B4: the binding result in experiment [2] is “binds”.

B5: HR23b-UBL (domain or fragment)
chain: not shown
notes: HR23b (RAD23B), UBL domain; The cited NMR structure of the HR23b-UBL domain is PDB 1P1A; 15N-labelled for the reverse titration; also called HR23b-UBL wt; UBL domain of HR23b; not shown: GST, N-terminal, cleaved
The molecule B5 returned a Kd in the experiment with UBXD1-PUB (150–264) of 1500 ± 900 µM.
